Measured values from patent US20090304667A1 (POSTECH ACADEMY INDUSTRY, published 2009).

Target: T1, PLD2^wt (Homo sapiens, UniProt O14939 1-933)
T1 construct: Ectopically expressed in COS7 or HEK293 cells from a mammalian expression vector; used as cell lysate; also called phospholipase D2
Assay: GST pull-down with PLD2-expressing cell lysates

T1 sequence (O14939 whole entry R172C/T577I): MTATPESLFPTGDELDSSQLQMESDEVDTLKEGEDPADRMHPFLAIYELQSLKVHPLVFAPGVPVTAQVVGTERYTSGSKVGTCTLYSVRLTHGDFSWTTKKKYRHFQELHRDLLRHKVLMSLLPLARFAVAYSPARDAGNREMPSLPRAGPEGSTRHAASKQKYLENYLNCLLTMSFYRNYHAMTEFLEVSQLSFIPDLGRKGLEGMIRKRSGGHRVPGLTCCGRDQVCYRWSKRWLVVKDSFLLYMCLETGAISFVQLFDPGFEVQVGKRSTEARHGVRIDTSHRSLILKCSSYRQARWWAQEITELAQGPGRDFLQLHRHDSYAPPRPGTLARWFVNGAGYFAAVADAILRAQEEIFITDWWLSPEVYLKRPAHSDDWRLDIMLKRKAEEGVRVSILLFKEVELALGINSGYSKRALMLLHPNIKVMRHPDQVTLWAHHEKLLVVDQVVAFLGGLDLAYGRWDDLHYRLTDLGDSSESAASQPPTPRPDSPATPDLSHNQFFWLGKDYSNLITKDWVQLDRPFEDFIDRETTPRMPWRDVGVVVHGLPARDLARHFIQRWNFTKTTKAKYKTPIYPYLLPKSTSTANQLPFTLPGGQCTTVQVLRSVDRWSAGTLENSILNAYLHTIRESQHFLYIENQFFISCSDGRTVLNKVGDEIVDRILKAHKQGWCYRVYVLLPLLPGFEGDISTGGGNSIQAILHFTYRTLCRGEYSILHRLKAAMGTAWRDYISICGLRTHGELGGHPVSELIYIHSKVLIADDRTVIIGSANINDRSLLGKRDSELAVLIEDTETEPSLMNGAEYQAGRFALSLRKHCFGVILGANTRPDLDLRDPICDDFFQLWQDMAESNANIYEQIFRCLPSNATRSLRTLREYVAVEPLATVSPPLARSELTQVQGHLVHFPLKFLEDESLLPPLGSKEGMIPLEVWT

B1: GST-R-Ras (other, UniProt P10301 1-218, looked up)
chain: MSSGAASGTGRGRPRGGGPGPGDPPPSETHKLVVVGGGGVGKSALTIQFIQSYFVSDYDPTIEDSYTKICSVDGIPARLDILDTAGQEEFGAMREQYMRAGHGFLLVFAINDRQSFNEVGKLFTQILRVKDRDDFPVVLVGNKADLESQRQVPRSEASAFGASHHVAYFEASAKLRLNVDEAFEQLVRAVRKYQEQELPPSPPSAPRKKGGGCPCVLL
notes: Expressed in E. coli, on glutathione-Sepharose beads; also called GST-Ras; not shown: GST tag
- binding result: no binding
